Test results: PMC3325213 (PLoS Pathogens, 2012)

Target: the molecule itself
Experiment: SEC; analytical gel filtration, Superdex-200 10/300GL, 50 mM Tris pH 7, 500 mM NaCl, 5% glycerol; mass against protein standards

B1: Tsi2–H6 (C-terminal hexahistidine-tagged Tsi2) (natural protein)
chain: MNLKPQTLMVAIQCVAARTRELDAQLQNDDPQNAAELEQLLVGYDLAADDLKNAYEQALGQYSGLPPYDRLIEEPAS
notes: source: E. coli BL21 pLysS, purified (HisTrap FF, Sephacryl S-200 size exclusion); not shown: His6, C-terminal, kept
stoichiometry N: 2
